The values that follow come from the DeepSol protein solubility set.

This data set is described as follows: soluble on expression in E. coli; label from the status in PepcDB or PDB records.
Take “MNVSVVIPALNEEATVADVVALSRRGSDEVIVIDSDSTDATAARAKAAGASVVNWRDVVSLPPIPGKGEALWRGVAAARGDVVVFLDADLTEISPTIVEDLARPFIDDSVMLAKAAYTRGDASGGGGRVTELTARPLLEAFFPELGFVRQPLGGEYAIRRSAALDLPFVGGYGVEVGLLIDVFRCFGAASIVEVEAGHRGHRHRPLRELAPMARVVASTILQRAGVASGLDGVGQRPAISSLESGVGKVLEHHHHHH”: the “soluble on expression in E. coli” value is “soluble”.
Under “MADRAEMFSLSTFHSLSPPGCRPPQDISLEEFDDEDLSEITDDCGLGLSYDSDHCEKDSLSLGRSEQPHPICSFQDDFQEFEMIDDNEEEDDEEEEEEEEEEEDGDRQGKAGGGPGSQALAGDSLIPSPSLEESHKLRPTTLHLTTLGAQDSLNNNNGGFTSAPPSSWQETVLRSPAQEPLKELPAPLLPAEEERHEVQSLARPGCDCEGNQPPEQPASSGGASPSSDPGIEADLRSHSSGGHEGRRSSQELSSPGSDSEDAGGARLGRMISSISETELELSSDGGSSSGRSSHLTNSIEEASSPASEPEPEPEPLHEPPRRPAFLPVGQDDTNSEYESGSESEPDLSEDADSPWLLSNLVSRMISEGSSPIRCPGQCLSPAPRLPEEAASQANSVPQDCQDPEAGPHVELVDMDTLCGPPPPAPAAPRLGPAQPGPCLFLSNPTRDTITPLWATPGRTARPGRSCSAACSEEEEEDEEEDEEDEEDAEDSVVPPGSRTTGSTAPLDASLVYDAVKYTLVVDEHTQLELVSLRRCAGLGNDSEEDSSCEASEEEAGATLLGSDQVPEDASPDSPDLTFSKKFLNVFVNSTSRSSSTESFGLFSCVVNGEEREQTHRAVFRFIPRHPDELELDVDDPVLVEAEEDDFWFRGFNMRTGERGVFPAFYAHAVPGPAKDLLGSKRSPCWVDRFDVQFLGSVEVP” stands “soluble”; under “MVKTMKWARIGDIIVLNREADDPEALLEMEGVRSVIRVEGIHGPLRRPRVRVLAGSGTETVHKENGCLFRIDLSRVMWSRGNINERARIPSLVEEGETVVDMFAGIGYFSIPVAVHSDPGRVYSVELNPDSFELLKSNITLNRVEGIIEPILGDCREVAPELDADRVIMGYVGRTHHFLDAAMECVRDGGVIHYHETAPEAIRFSRPLRRIERAAHPRRVSLLDKRVIKKYSPGVWHVVLDVRIH”, “soluble”.
The same measure for “MLQPTPTLTDQVAGQLARAIADGAYAVGAKLPTGRALAQQYGVSAAVIREATERLRAQGLVQSRQGSGCTVVARMPAGGFQVPAGGLDRAHLARVYELRMELEGGAAALAARRRGAADLDRMRQALQALQREPIEPEQGVVHDVGFHVAIATATANPYYLQLLQYLNLQLRQAVETARANTRRQGDPVHAVHEEHLAIYRAIERGEPEAARAAAQHHLLGAAARLQLDMNL”: “not soluble”.
Under “MAAQVEIEDQESVTNLDNGEIINPISDNAPNFSGDATILLREATFEHNLIKNCFLSGMGSFATETTIVTVRKILTQRLITTKAKFAVFKLFTEAMKRKNNGYANIRYGWYSGSKEEIDRVITYGFSNREIKKVENDVGSHGVGIHLVHHRYSLAAALVGEGDEEGIKNILLCRVILGKPEQIVTGSKQSYPSSNQFDSGVDNLENPRKYVIWSCNMNSYILPTYIVSFKSHLLRGLIGRARSPCVSFSVLMSILSKSLDAARMNLILTSYDDFRKRKLRREQLVRKIREVVGDNLLFKILKNQRR” stands “soluble”; under “MGNCESRELVAQAKQNKIINTELDKAKKTDENIIKLLLLGAGESGKSTVLKQMKIIHNSGFSQEEISNKRNVVCANTVQAMGALLDGMKQLQFDFSTRVCNAHEKLIRETLNDKAEYGPFSDAMFNALTELWADKGVQCAYDKREFFYLHDSAKYFFDAIARVHTPNYVPTENDILHTRVPTMGVIEVNFTIKGKFFRVFDVGGQRSQRKKWIHCFDDAKAMIYVASLSEYDQVLLEDNTTNRMHESIQLFKQVINNKYFVNTSVILFLNKIDLFEEKIVTKKRSLGIAFESFSGPSQDLNAAVAFVEKKYRSMAENKEKNIYCHHTCATDTQQVQYVLDAVLDTILSTKLKGCGLY”, “not soluble”.
As to “MGHHHHHHSSGLVPRGSATERQDRNLLYEHAREGYSALPLLDMESLCAYPEDAARALDLRKGELRSKDLPGIISTWQELRQLREQIRSLEEEKEAVTEAVRALVVNQDNSQVQQDPQYQSLRARGREIRKQLTLLYPKEAQLEEQFYLRALRLPNQTHPDVPVGDESQARVLHVVGDKPAFSFQPRGHLEIAEKLDIIRQKRLSHVSGHRSYYLRGAGALLQHGLVNFTLNKLIHRGFTPMTVPDLLRGVVFEGCGMTPNAKPSQIYNIDPSRFEDLNLAGTAEVGLAGYFMDHSVAFRDLPIRMVCSSTCYRAETDTGKEPWGLYRVHHFTKVEMFGVTGPGLEQSSELLEEFLSLQMEILTELGLHFRVLDMPTQELGLPAYRKFDIEAWMPGRGRFGEVTSASNCTDFQSRRLHIMFQTEAGELQFAHTVNATGCAVPRLLIALLESYQQKDGSVLVPPALQPYLGTDRITTPTHVPLQYIGPNQPQKPRLPGQPASS”, the “soluble on expression in E. coli” value is given as “soluble”.
Regarding “MKVDVDEKTYIITMANDITKLYEENKRNLHYSITDPLTGAYNRKYLNDRFDIFIGDYIVLIDLDNFKMINDYEGHNVGDKILCDFVSLLNKELINSTSIIRLGGDEFIVIFSSDVDKNYVYSQLEALRENFLKVFSKYKYLSFSYGVDTVKRNLKLTIVELDKKMYKNKEKLEHHHHHH”, the “soluble on expression in E. coli” value was “not soluble”.
Consider “MGSDKIHHHHHHMIHLAVGRFNIDIIVKLDSIPPIDSSHMTDVLEIMPGGAATNYAVAVTKLGHSAKLLAKVGKSEVVRSLMEKVVELGVGLEYVEELNEKPSATLIFLRNDGTLSMVRRLGASILLTREDVKRRFGLFDVIHFASVSPNVVVRDPYAKLVSYDPGPQAKNIESVDVDILYVNEKEYEMIEDKNIRARFIVIKMGKKGAKIITETEECSVEPIQVEKIVDTTGAGDTFDAAFNVTYSEDKDIVKSLQVASVASGLKVSRIGGISSPTLEEVREYLRKKKPNVICK”, for which the “soluble on expression in E. coli” value is reported as “not soluble”.
The same measure for “MSLSNERSSEKTLQNLKTQLLEDSSFLSKLREKITPHIDDHDIQKIIRDYLLTNPEIIIEMQLILQDKLEKQSAQNTQKQASIINSLKKQIFQSPYDAVLGNPNGKRVLVDFFDYNCGYCKISYPYIENLIKEYPDLRVIIKDLPILGSDSMAAHIVAYAFRKQFPEKYPQFYKELLTHQSRANEIKAIKIAVSLGADEKKLRNAIKDSSLQNAFKKNIQIASRLNITGTPSYIIGDKLLIGAVSEEILKEAIENMQEGHHHHHH”: “soluble”; for “MSLSIYQASIPTFLRTLGNLSAILKKAAAHAEAKNIDPRIFIDARLAPDMFPLARQVQIASDAAKGAGARLAGLEVPSYADTETTFDELQARIARTVEFLEGIREEQLDGAEERNVTLKVRGQEISFNGRDFLFGFALPNFFFHVTTAYAILRHNGVELGKMDFLGGA”: “not soluble”; for “MNRTALVLGCLLVATPALAQSVTEKTGVNSVLGIAPTTPDFVKQVAISDMFEIQSNQLAERKGNAAQQAFAKQMIADHTKTSSELKAMVSDGKVKAELPTALDSAHQSKLDKLKNANGAEFSETFDEQQVSAHKDAVSLFERYAKGGDNDALKKWAGTTLPKLQHHLEMAQQLERDRTNTTSESKAKK”: “not soluble”.
The same measure for “MGSDKIHHHHHHMSENEQLSATYELLHADAASPVMISLPHSGTWIPADMRKHLLPTAVLANTDWFLPALYDFLPQTGFTTLINRVNRYVADPNRAVTLDLDHDYRSATIYQRNTFNHPLYARPLPPETLQSRLRTYYWPYRHALTMILKQKQAKFGHAYLIDLHSFAQYPHYPGIKPKTIVLGNDHDRTTSKIFRQTLSAAFVAHDFTVENNFPFRGGDITRYYGHQPNITAIQIELRYDQYIDQRSFREEVLTRHQTDLFCKAQDRLRFLRDFLKQLR”: “not soluble”; for “MGSDKIHHHHHHMSQLVRPTLELPAGRRKVLLHSCCAPCSGEVMEAMTASGIDYAIYFYNPNIHPVKEYEIRKNENIRFAEEHGIEFIDADYDMDNWFERVKGMENEPERGIRCTACFDMRFERTALYAHEHGFDTITSSLGISRWKDMNQINGCGERAAARYDDLVYWTYNWRKGGGSQRMIEISKRENFYQQEYCGCVYSLRDTNRHRRAQGRERIHLGVKFYGVEEKL”: “not soluble”.
The same measure for “MENEVVFFCRKCNHHLFAKNPMINTLKVISEMDCPNCGEEGYHNWILSHIGDSEKEKENYNWKLEHHHHHH”: “soluble”; for “MGSDKIHHHHHHMINSRARRNLIAQDSGEHRHDFPQILIGWRGEIECEFSKGSGRLNNGLVGIVPNAAEHLFRGLNNNSELLVIDVVLEDPYIQAMEQACNLSFSETLFKQPHFVSLAPEMLPLLEYSANQLLLDKKTATPQLNCQLVSLFMTQLSQMYSPEIKSSAINQRIEATRLNDIIDQRLARPPNNTELANLLHLSESHFYCICQQQFGVSPQKYVMRRRMQRAKFLLLNSKIPLSALASELGFSDVSSFSRAYKKYYQQPPGQTRTLFQLGLNANHASIRK”: “not soluble”.
For “GMTFEPYPFERLRALLKEITPKKRGLDLGIGEPQFETPKFIQDALKNHTHSLNIYPKSAFEESLRAAQRGFFKRRFKIELKENELISTLGSREVLFNFPSFVLFDYQNPTIAYPNPFYQIYEGAAKFIKAKSLLMPLTKENDFTPSLNEKELQEVDLVILNSPNNPTGRTLSLEELISWVKLALKHDFILINDECYSEIYENTPPPSLLEACMLAGNEAFKNVLVIHSLSKRSSAPGLRSGFIAGDSRLLEKYKAFRAYLGYTSANAIQKASEAAWLDDRHAEFFRNIYANNLKLARKIFKNTLIYPYSFYVYLPVQNGENFAKTLYQNEGIITLPALYLGRNRIGADYVRLALVYDTPLLEKPLEIIETYRENHA”, the “soluble on expression in E. coli” value is “soluble”.
In the case of “MAHHHHHHMHTLVNFYTKGSDPVHKATIMPRGMSLGVTWKIPISDKYSQKIRDVQSEIDILMGGLVSEEIIFGKNNVTTGCSSDLQRATHIAQSLVMNYGVGINEENISMFLQDKKNISEEMKIKIDKSIQRILLDSYNRAKKVLNQHIDELHRVASALVEYETLTSDEIKLAMQGKHDQIRKNRELKQKEFNLKDSRIS”, the “soluble on expression in E. coli” value is listed as “soluble”.
As to “GQLQEPYETVTIDVEEQHQGPIMEKMGVRKAELTDMAPDGTGRIRMDFIMPSRGLIGFQTEFMTLTSGSGLIYHTFFEYGPHKGGEIGQRKNGVMIGNATGKALTNAIFNLQSRGRMLIGHGVDIYEG”, the “soluble on expression in E. coli” value was “not soluble”.
Turning to “MVPPRGDAVRGPLGPGGESVVERYWEALKGVKDPEIPVLNIVEMGMVLGVEAEGKRVKVRFRPTFSGCPAIQLIREEIVGALKEAGAEEVEVEEARTPWSTEAMTEEAREKLLGYGVAPPLPLPMAGEDPPCPRCGSREVVLKNPFGATLCKTLYQCAACGEVFEAFKTV”, the “soluble on expression in E. coli” value was “soluble”.
Turning to “MHDKMHDTGTRSDMARFNPLHGNPLKSRADVRRALDDSFAPLLPYFSPGGARVALSGTAAHFDRAAADLEGFARPLWGIAPLALSGDTFAHWPLLAKGIANGTDPAHPDYWGDVRQKDQRLVELAAIGFALRLAPQHLWEPLSDAQKENVSRYLLAARERNYADNNWKFFRVMVDMALDHLGIGFDRSLTETFQKELDDFYIADGWYRDGNYRRIDHYIAFAMHFYGLIYARLSKPDDAYAKRYRERARLFAGDFASWFDEDGGALAFGRSMTYRFACGGFWAGLAFADEEALPWGEIKGLYLSHLRWWAEKPIADRDGVLSIGYAYPQLTMSESYNSAGSPYWAFKAFLPLALPESHPFWQAQETLPKVSTNPHPLVHPGMVMMRAKGNVTALSSGQENLAMRGGPEKYAKFAYSSRYGFGVEVDERGFRTNGFDNILAFSDDGLHYRVRETNRKVLMAGANLRATWKPFPDVTVETTLVAAENWHVRLHRITSARALAVAEGGFAINRNDGERDVVSETGGKATADCGTDISAIVDLGSTISRHGVALKALPNTNLINAKTTVPQLRGEIPAGETMLACAVFAGVAGAESERALAAVPACPDLEALDRLFADRGVPVSAMAGEPQLEHHHHHH”, the “soluble on expression in E. coli” value is “not soluble”.
